Reference: patent US20260069656A1, “Nutritive Polypeptides and Formulations Thereof, and Methods of Production and Use Thereof” (Axcella Health Inc., priority 2013, published 2026)

How the values were obtained:
[1] = Intact half-life during simulated gastric fluid (SGF) digestion; details: for SGF Half-life (t½): SGF pH 1.5, pepsin:polypeptide 1:20 w/w, 37° C., produced in E. coli unless otherwise noted; for Half-life: purified proteins, chip electrophoresis, SGF
[2] = SGF digest of the 168 nutritive polypeptide library, intact protein by LC-MS/MS spectral counts; format: in vitro ADME; details: proteins detected in the 168 nutritive polypeptide library
Protocol: Nutritive polypeptide intact half-life determination in a complex mixture. The in vitro intact half-life of multiple polypeptides in a complex mixture was determined using the simulated gastric in vitro digestion described above. Briefly, the 168 nutritive polypeptide library was generated as described herein by cloning, transforming, and expressing a gene library encoding 168 proteins as a single mixture. The recombinantly expressed proteins were purified from host cell proteins by IMAC purification as described herein.
The 168 Protein Library was treated with SGF as described above and the t=0 and t=10 min samples were analyzed for intact protein by LC-MS/MS. To begin, 10 μg of sample was loaded onto a 10% SDS-PAGE gel (Invitrogen) and run approximately 5 cm into the gel. The gel was excised into ten fractions from 100 kD to the dye front and the gel slices were processed by washing with 25 mM ammonium bicarbonate, followed by acetonitrile. Gel fractions were then reduced with 10 mM dithiothreitol at 60° C., followed by alkylation with 50 mM iodoacetamide at room temperature. Finally, the samples were digested with trypsin (Promega) at 37° C. for 4 h and the digestions were quenched with the addition of formic acid. The samples were then analyzed by nano LC/MS/MS using an EasynLC 1000 HPLC system interfaced to a ThermoFisher Q Exactive. Peptides were loaded on a trapping column and eluted over a 75 μm analytical column at 350 nL/min; both columns were packed with PepMap C18 3 μm resin (ThemoFisher). A 1 hour gradient was employed. The mass spectrometer was operated in data-dependent mode, with MS and MS/MS performed in the Orbitrap at 70,000 FWHM resolution and 17,500 FWHM resolution, respectively. The fifteen most abundant ions were selected for MS/MS. Data were searched against an appropriate database using Mascot to identify peptides. Mascot DAT files were parsed into the Scaffold software for validation, filtering and to create a nonredundant list per sample. Data were filtered at 1% protein and peptide false discovery rate (FDR) and requiring at least two unique peptides per protein. A full list of detected proteins and their spectral counts (SpC) was generated and reported as a function of each collected gel fraction. SpC are a count of the number of spectra identified for a given protein and are used as a measure of relative protein abundance (Liu, H. et al., Analytical Chemistry 2004, 76:4193-4201). To calculate the percentage of intact protein remaining at the 10 min time point of the SGF digest the number of SpC representative of intact peptide in the t=10 min sample were divided by the number of SpC representative of intact peptide in the t=0 min sample. The number of SpC representative of intact peptide was defined as the sum of the SpC in the fraction with the highest number of SpC assigned to that protein in the t=0 min sample and the two flanking fractions.

[3] = Thermostability, ProteoStat Thermal Shift Stability Kit, temperature of aggregation; format: physicochemical
Protocol: Thermostability. The thermostability of proteins in a buffer cocktail of Citric Acid and Dibasic Sodium Phosphate over a pH range of 2.8 to 7.1 (preparation described above in Table E31B) was determined using the ProteoStat® Thermal Shift Stability Kit (Enzo Life Sciences) according to the manufacturer's standard protocol. Briefly, protein solutions (˜10 mg/ml) containing 1× ProteoStat TS Detection Reagent were heated from 25° C. to 95° C. at a rate of 0.5° C. per 30 sec using a real-time PCR (rtPCR) thermocycler (BioRad) equipped with a plate reader (SynergyMx, Biotek) while monitoring the fluorescence with a Texas Red filter.

[4] = pH solubility screen in Citric Acid / Dibasic Sodium Phosphate buffers; format: physicochemical; details: for pH Range where Protein is >80% detected as Soluble and A650 <1 OD: Low: lower pH of range; for pH Range where Protein is >80% detected as Soluble and A650 <1 OD: High: upper pH of range
Protocol: pH Solubility. […] Protein was either lyophilized and then resuspended in buffer cocktail mixtures, or concentrated and then spiked into buffer cocktail mixtures at a final protein concentration of 5 to 30 mg/ml. As a control, protein was also dissolved in a solution of 8 M urea. Protein solutions were shaken for 10 min at room temperature. Turbidity of proteins was determined by measuring the absorbance of protein solutions at 650 nm. The protein solution was then centrifuged for 10 min at 1100×g to pellet undissolved or precipitated protein. The soluble protein fraction (supernatant) was sampled and protein concentration was measured by one or more of the following methods: Coomassie Plus Protein Assay (Pierce), Chip electrophoresis, gel electrophoresis, and/or absorbance at 280 nm. The pH range over which select proteins remained greater than 80% soluble as determined by Bradford and the A650 value are listed in Table E31C.

[5] = heated 25° C. to 95° C., NS = protein not soluble

B1: SEQID-00502: protein of the 168 nutritive polypeptide library (protein)
chain: MASQSNTKSVHDFTVKDARGNNVNLADYKGKVLLIVNVASQCGLTNSNYTELNQLYEKYKGKGLEILAFPCNQFGAQEPGTNEEIVEFACTRFKAEFPIFDKVDVNGDNAAPLYKFLKSSKGGLFGDSIKWNFSKFLVDKDGNVVDRYAPTTSPLSIEKDIKKLLDA
modifications: Glycine max
notes: protein of the 168 nutritive polypeptide library
- SGF Half-life (t½) [1]: 0.6 min
- Half-life [1]: 0.6 min
- % Remaining at 10 min [2]: 9.7%
- Tagg pH 2.8 ([3]; NS = protein not soluble): 95
- Tagg pH 3.7 ([3]; NS = protein not soluble): 95
- Tagg pH 4.3 ([3]; NS = protein not soluble): 95
- Tagg pH 4.6 ([3]; NS = protein not soluble): 95
- Tagg pH 5.0 ([3]; NS = protein not soluble): 77
- Tagg pH 5.6 ([3]; NS = protein not soluble): 77
- Tagg pH 6.0 ([3]; NS = protein not soluble): 76.5
- Tagg pH 6.5 ([3]; NS = protein not soluble): 78.5
- Tagg (pH 7.1) [3, 5]: 95
- pH Range where Protein is >80% detected as Soluble and A650 <1 OD: Low [4]: 7.1
- pH Range where Protein is >80% detected as Soluble and A650 <1 OD: Other ([4]; other pH where soluble): 2.8

B2: SEQID-00601: protein of the 168 nutritive polypeptide library (protein, listed as Agaricus bisporus)
chain: MTRSWEPGTQYNLGDVVEYNGDEYKIIQAHSSQSDWAPDRTPALWGKLPHRHHQQGQYQQQQECQPQQPQKTCYDYGKQEQAPQHSDSKEKKNWFGNITESQKQALEVGGGVALGAGLLGGAFAAWKHHQHKEEAHDSFEAWANAARSRAEEFRAKGPQGPATWVYNEGKHIPEQAILVGTEHNWNLYICRAYCDGGVQIGKASDVFKKGAVIGYKEDEHHLDKYEILLGDMRGLKWVQTGNSLDLASLGATPVEGGYENDHTRLYIARAFHKGAKHPGKVSERLDGAYIPYDGKEKCVKEYEVLCYL
modifications: var. bisporus; strain H97 / ATCC MYA-4626 / FGSC 10389
notes: as for B1
- SGF Half-life (t½) [1]: 0.2 min
- Half-life [1]: 0.2 min
- % Remaining at 10 min [2]: 1.1%
- Tagg pH 2.8 ([3]; NS = protein not soluble): 95
- Tagg pH 3.7 ([3]; NS = protein not soluble): 95
- Tagg pH 4.3 ([3]; NS = protein not soluble): 95
- Tagg pH 6.5 ([3]; NS = protein not soluble): 45.5
- Tagg (pH 7.1) [3, 5]: 48.5

B3: SEQID-00511: protein of the 168 nutritive polypeptide library (protein)
chain: MVLFGFGKKKSLPKPEEALPGRDRVMSVPDRHYINGNPLKPPFPEGMEQAVFGLGCFWGAERKFWQQQGVFSTAVGYAGGYTKNPTYEEVCSGMTGHTEVVLVVFDPKVISYTDLLKLFWESHNPTQGMRQGNDTGTQYRSAIYTYSDEQQRLALASRDRYQQALSAASYGEITTEIAPAQEFYYAEAYHQQYLGKNPNGYCGLGGTGVGCPAMTETSV
modifications: Arthrospira platensis C1
notes: as for B1
- SGF Half-life (t½) [1]: 0.3 min
- Half-life [1]: 0.3 min
- % Remaining at 10 min [2]: 4.3%
- Tagg pH 6.0 ([3]; NS = protein not soluble): 39.5
- Tagg pH 6.5 ([3]; NS = protein not soluble): 45.5
- Tagg (pH 7.1) [3, 5]: 42
- pH Range where Protein is >80% detected as Soluble and A650 <1 OD: Low [4]: 5.6
- pH Range where Protein is >80% detected as Soluble and A650 <1 OD: High [4]: 7.1

B4: SEQID-00610: protein of the 168 nutritive polypeptide library (protein, listed as Saccharomyces cerevisiae)
chain: MVLEATVLVIDNSEYSRNGDFPRTRFEAQIDSVEFIFQAKRNSNPENTVGLISGAGANPRVLSTFTAEFGKILAGLHDTQIEGKLHMATALQIAQLTLKHRQNKVQHQRIVAFVCSPISDSRDELIRLAKTLKKNNVAVDIINFGEIEQNTELLDEFIAAVNNPQEETSHLLTVTPGPRLLYENIASSPIILEEGSSGMGAFGGSGGDSDANGTFMDFGVDPSMDPELAMALRLSMEEEQQRQERLRQQQQQQDQPEQSEQPEQHQDK
modifications: strain ATCC 204508 / S288c
notes: as for B1
- SGF Half-life (t½) [1]: 0.4 min
- Half-life [1]: 0.4 min
- % Remaining at 10 min [2]: 3.3%

B5: SEQID-00606: protein of the 168 nutritive polypeptide library (protein)
chain: MASEGDHHHHHHHHQDHDHHHHDHDHHHHHDGEGETNSWVGKDGKVYHSHDGLAPHSHEPIYSPGYFTRRAPPLLNRNFNERAFTVGIGGPVGTGKTALMLALCELLRENYSLAAVTNDIFTKEDGEFLVKHKALPEERIRAVETGGCPHAAIREDISINLGPLEELSNLFKADILLCESGGDNLAANFSRELADYIIYIIDVSGGDKIPRKGGPGITQADLLVINKTDLAPAIGADLAVMQRDALRMRDGGPFVFAQVKHKIGVEEIGNLVLQAWEAATGNKRH
modifications: Glycine max
notes: as for B1
- SGF Half-life (t½) [1]: 0.3 min
- Half-life [1]: 0.3 min
- % Remaining at 10 min [2]: 0%
- Tagg (pH 7.1) ([3]; heated from 25° C. to 95° C.): 95

B6: SEQID-00647: protein of the 168 nutritive polypeptide library (protein)
chain: MALSKIEEARQLNDDDLSEQILEIKKQLANLRLLKATGRLEKPHEIRHTRHRLSQLLTVERERQLPNQSPA
modifications: Arthrospira platensis C1
notes: as for B1
- SGF Half-life (t½) [1]: 0.2 min
- Half-life [1]: 0.2 min
- % Remaining at 10 min [2]: 12%

B7: SEQID-00605: nutritive polypeptide naturally produced in Mushroom, recombinantly expressed in E. coli (protein, listed as Agaricus bisporus)
chain: MLEFTLNDGNRIPAIAFGTGTALYNQDASAFVRLAIETGITHLDGAQMYENEETLGKGIKSSGKPRSELFITTKLHILKPGQTVRETLVESLGKIGVDYVDLFLIHDPTANRKEATLSEIWSQLEALKNEGLTKSIGVSNFKVEDLNEILPGAKIIPAVNQIEFHPYVLKAASPIIELCKAKGIIVASYGGQTPIVRATDGPLKDLLPKIRERLEQTRGSPVTEGQVLTKWLLQKNVIAISTSSKESRIKEFLSTVDVPDLTKQEIESIDNAGSTIHKRIYMKHIFNE
modifications: var. bisporus; strain H97 / ATCC MYA-4626 / FGSC 10389
notes: nutritive polypeptide naturally produced in Mushroom, recombinantly expressed in E. coli
- SGF Half-life (t½) [1]: 0.2 min
- Half-life [1]: 0.1 min
- % Remaining at 10 min [2]: 0%
- Tagg pH 4.6 ([3]; NS = protein not soluble): 40.5
- Tagg pH 5.0 ([3]; NS = protein not soluble): 33.5
- Tagg pH 5.6 ([3]; NS = protein not soluble): 37
- Tagg pH 6.0 ([3]; NS = protein not soluble): 44.5
- Tagg pH 6.5 ([3]; NS = protein not soluble): 38.5
- Tagg (pH 7.1) [3, 5]: 39
- pH Range where Protein is >80% detected as Soluble and A650 <1 OD: Low [4]: 5.6
- pH Range where Protein is >80% detected as Soluble and A650 <1 OD: High [4]: 7.1
